According to patent US20110033929A1:

Key:
human Langerin (human) [1] = target: human Langerin (human) (UniProt Q9UJ71); assay: cell-based or functional assay
human Langerin (human) [2] = target: human Langerin (human) (UniProt Q9UJ71); assay: immunogold electron microscopy, 4° C., 5 nm gold goat anti-mouse IgG, Langerhans cells of epidermal cell suspensions
human Langerin (human) [3] = target: human Langerin (human) (UniProt Q9UJ71); assay: immunogold electron microscopy, 4° C., Langerhans cells of epidermal cell suspensions; isotype control for DCGM4

Chain of UniProt Q9UJ71 (Q9UJ71 whole entry V278A): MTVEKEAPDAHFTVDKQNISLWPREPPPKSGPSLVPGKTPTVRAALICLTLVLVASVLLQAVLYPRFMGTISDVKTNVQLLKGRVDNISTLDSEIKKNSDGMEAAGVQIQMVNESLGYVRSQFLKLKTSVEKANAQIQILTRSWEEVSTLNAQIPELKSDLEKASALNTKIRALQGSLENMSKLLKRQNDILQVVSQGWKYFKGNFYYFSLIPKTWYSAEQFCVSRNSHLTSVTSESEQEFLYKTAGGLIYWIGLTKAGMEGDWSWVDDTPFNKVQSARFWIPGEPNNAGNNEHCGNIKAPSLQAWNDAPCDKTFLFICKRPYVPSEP

Row | half-life (t1/2) of DCGM4 at the cytomembrane (human Langerin (human) [1]) [min] | internalization (decrease of cell-surface-bound antibody by FACS) (human Langerin (human) [1]) [%] | internalization rate k (human Langerin (human) [1]; scale: °/min) | gold granules/100 µm membrane (gold granules/100 µm membrane) (human Langerin (human) [2]) | gold granules/100 µm membrane (granules/100 µm) (human Langerin (human) [3]) | Substance
1 | 4.5 | 75 | 15.3 | 162 |  | monoclonal antibody DCGM4
2 |  |  |  |  | 1.3 | control mouse IgG1 (Sigma) (antibody)
